In one data set the test system is Colo320 cells. Briefly: Cellular uptake of FITC-labelled peptides. The format is cell-based. The conditions noted are these: FITC derivatives. As for the experimental part: (§1) For fluorescence microscopy evaluation, cells were prepared using a cytocentrifuge (Thermo Shandon) and fixed as previously described (Sukhdeo, K. et al. Proc Natl Acad Sci USA 104, 7516-21 (2007); Mani, M. et al. Cancer Res 69, 7577-86 (2009)). Anti-β-catenin and rhodamine-conjugated secondary antibodies (5 μg/ml; Southern Biotechnology) were employed. Images were obtained using a BioRad Radiance 2000 laser scanning confocal microscope. Cell permeability of SAH-BCL9B and SAH-BCL9B(R359E) were determined by fluorescence microscopy of cells treated with FITC-derivatives of the above described stapled peptides and also by blotting/fluorescence scan, performed as previously described (Pitter, K. et al Methods Enzymol, 446, (2008), 387-408; Walensky, L. D. et al. Science 305, 1466-70 (2004). See results in FIG. 1E, FIG. 7.

In a further data set the test system is MM1S cells. Briefly: Cellular uptake of FITC-labelled peptides. The conditions noted are these: FITC derivatives. Type of data set: cell-based. As for the experimental part:
as §1

The subject of the next data set is IκBα and actin. Briefly: Anti-FITC pulldown from MCF7 lysates (unrelated proteins). The format is cell-based. The conditions noted are these: MCF7 cells, selectivity. From the text: (§2) Western blotting, performed as described (Sukhdeo, K. et al. Proc Natl Acad Sci USA 104, 7516-21 (2007)), employed the following primary antibodies: BCL9 (6109) (Mani, M. et al. Cancer Res 69, 7577-86 (2009)), BCL9 (ab37305, Abcam), B9L (AF4967, R&D Systems), β-catenin (CAT5-H10, Zymed), FITC (ab19224, Abcam), Actin-HRP (C-11, Santa Cruz), Caspase3 (#9662, Cell Signaling), IκBα (#9242, Cell signaling), PARP (#9542, Cell Signaling), E-cadherin (#3195, Cell Signaling), and Lamin B (sc-6217, Santa Cruz). Horseradish peroxidase conjugated secondary antibodies were purchased from Santa Cruz and SouthernBiotech. Co-immunoprecipitation was performed as described (Walensky, L. D. et al. Science 305, 1466-70 (2004)). Briefly, cells were lysed in 50 mM Tris, 150 mM NaCl, and 1% CHAPS buffer containing protease and phosphatase inhibitors. Lysates were precleared with Protein A/G PLUS-agarose beads (Santa Cruz Biotechnologies) for 3 hours followed by overnight incubation at 4° C. with the respective antibodies. Agarose A/G beads were then added for 4 h, pelleted, and washed as described (Walensky, L. D. et al. Science 305, 1466-70 (2004)). See results in FIG. 1D, FIG. 1H, FIG. 2A, FIG. 8.

Data set [1] concerns the target T1, β-catenin/E-cadherin interaction (Homo sapiens, UniProt P35222).
T1 construct: anti-β-catenin co-immunoprecipitation of E-cadherin from MCF7 cell lysates; endogenous in cells; host or cells: MCF7
T1 sequence (P35222 2-781 limits assumed): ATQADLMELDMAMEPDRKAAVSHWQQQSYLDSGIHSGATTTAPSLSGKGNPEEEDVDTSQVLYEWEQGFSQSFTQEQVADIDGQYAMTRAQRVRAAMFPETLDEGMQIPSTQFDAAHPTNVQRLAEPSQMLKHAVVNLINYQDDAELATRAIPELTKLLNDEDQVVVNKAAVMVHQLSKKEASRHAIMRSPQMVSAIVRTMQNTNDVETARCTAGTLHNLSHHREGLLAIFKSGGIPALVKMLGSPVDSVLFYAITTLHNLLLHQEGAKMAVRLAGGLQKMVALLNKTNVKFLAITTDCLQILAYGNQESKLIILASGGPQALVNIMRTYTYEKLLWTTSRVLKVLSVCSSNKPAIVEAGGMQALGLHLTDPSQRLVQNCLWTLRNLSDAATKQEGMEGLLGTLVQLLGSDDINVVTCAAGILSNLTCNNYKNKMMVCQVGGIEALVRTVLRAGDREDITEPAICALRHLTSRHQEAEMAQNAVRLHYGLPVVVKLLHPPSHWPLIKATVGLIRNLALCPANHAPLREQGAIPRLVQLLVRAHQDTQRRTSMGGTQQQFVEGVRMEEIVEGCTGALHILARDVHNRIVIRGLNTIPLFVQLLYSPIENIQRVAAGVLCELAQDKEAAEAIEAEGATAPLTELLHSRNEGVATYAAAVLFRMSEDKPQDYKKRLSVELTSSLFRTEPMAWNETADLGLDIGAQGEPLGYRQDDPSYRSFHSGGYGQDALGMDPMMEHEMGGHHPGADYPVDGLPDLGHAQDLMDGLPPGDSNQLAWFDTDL
Briefly: Anti-β-catenin co-immunoprecipitation of E-cadherin from MCF7 cell lysates. The format is cell-based. The conditions noted are these: selectivity.
Text: as §2

The target of the next data set is T2, β-catenin (Homo sapiens, UniProt P35222).
T2 construct: endogenous in cells; host or cells: Colo320
T2 sequence (P35222 1-781): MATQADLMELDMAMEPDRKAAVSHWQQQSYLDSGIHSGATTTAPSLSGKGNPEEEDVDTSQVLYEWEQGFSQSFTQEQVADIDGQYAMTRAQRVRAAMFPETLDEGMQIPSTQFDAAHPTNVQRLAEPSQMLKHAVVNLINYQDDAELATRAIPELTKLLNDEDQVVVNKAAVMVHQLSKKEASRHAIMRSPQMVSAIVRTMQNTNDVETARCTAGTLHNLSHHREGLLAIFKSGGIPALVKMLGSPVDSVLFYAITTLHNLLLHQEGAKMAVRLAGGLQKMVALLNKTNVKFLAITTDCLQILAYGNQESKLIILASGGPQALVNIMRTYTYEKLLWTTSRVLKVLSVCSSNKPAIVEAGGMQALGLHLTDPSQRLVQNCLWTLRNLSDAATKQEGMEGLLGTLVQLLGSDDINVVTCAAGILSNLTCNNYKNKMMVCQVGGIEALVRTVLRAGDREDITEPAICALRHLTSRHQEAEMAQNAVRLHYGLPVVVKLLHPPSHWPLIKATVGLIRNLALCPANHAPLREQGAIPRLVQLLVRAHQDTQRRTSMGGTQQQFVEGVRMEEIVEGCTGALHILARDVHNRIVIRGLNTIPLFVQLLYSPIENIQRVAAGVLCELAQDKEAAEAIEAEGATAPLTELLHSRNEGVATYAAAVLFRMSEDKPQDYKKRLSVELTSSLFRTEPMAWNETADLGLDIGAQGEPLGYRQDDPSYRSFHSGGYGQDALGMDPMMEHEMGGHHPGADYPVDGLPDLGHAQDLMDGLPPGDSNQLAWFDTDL
Briefly: Anti-FITC / anti-β-catenin co-immunoprecipitation from lysates of peptide-treated cells. The conditions noted are these: FITC and β-catenin immunoprecipitation, in situ. Type of data set: cell-based.
Text: as §2

In data set [2] the test system is β-catenin/TCF interaction. The conditions noted are these: Lepourcelet et al. 2004; cited from earlier work.
In the next data set the test system is colon cancer cells. The conditions noted are these: Lepourcelet et al. 2004; cited from earlier work.
For data set [3] the following is noted: Sukhdeo et al. 2007; cited from earlier work.

Results on four substances are retold here after patent publication US12534501B2, “Targeting deregulated Wnt signaling in cancer using stabilized alpha-helices of BCL-9” (Dana-Farber Cancer Institute, Inc., priority 2011, dated 2026).

Take “FITC-SAH-BCL9B(R359E): FITC derivative of SAH-BCL9B(R359E)”: the cellular uptake result with Colo320 cells and in the data set on MM1S cells was “equivalent cellular uptake” each time. The temperature-dependent uptake entry in the data set with Colo320 cells is on record as “equivalent temperature-dependent uptake”.

Turning to “FITC-SAH-BCL9B: FITC derivative (via β-Ala at the amino terminus) of SAH-BCL9B”, in the data set with Colo320 cells, the cellular uptake result was “equivalent cellular uptake” and the temperature-dependent uptake result is reported as “equivalent temperature-dependent uptake”. Also, in the data set on MM1S cells, the cellular uptake entry is “equivalent cellular uptake”. In the data set on IκBα and actin, the “co-immunoprecipitation of unrelated proteins (IκBα, actin)” value is “no co-immunoprecipitation of unrelated proteins”. The “effect on β-catenin's interaction with E-cadherin” value in data set [1] is recorded as “no effect”. In addition, in the data set with β-catenin, the “β-catenin interaction by co-immunoprecipitation” value is on record as “dose-responsively co-immunoprecipitated with β-catenin”.

As for PKF115-584, the Wnt-specific transcriptional activity entry in data set [2] was “blocked Wnt-specific transcriptional activity”. In addition, the “growth of colon cancer cells” value in the data set with colon cancer cells is reported as “reduced the growth of colon cancer cells”. The “toxicity in treated mice” value in data set [3] is “severe bone marrow hypoplasia, anemia, and generalized wasting”.

Turning to “SAH-BCL9B(H358D): SEQ ID NO: 6: LSQEQLEDRERSLXTLRXIQRBLF; reverse polarity point mutant of SAH-BCL9B”, the cellular uptake result with Colo320 cells is recorded as “similar”. Further, the “β-catenin interaction by co-immunoprecipitation” value with β-catenin was “impaired β-catenin interaction”.
